Source: patent US20220306744A1 (CRESCENDO BIOLOGICS, published 2022)

B1: 1.72a (VHH)
VHH: EVQLVESGGGVVRPGGSLRLSCAASGFTFDDYASSWVRQAPGKGLEWVSGITWNGGSTGYADSVKGRFTISRDNAKNSLYLQMNSLRAEDTALYYCVRDKYSYAWSYDGFDIWGQGTMVTVSS
B2: 1.89a (VHH)
VHH: EVQLVESGGGVVRPGGSLRLSCAASGFTFDDYAESWVRQAPGKGLEWVSGITWNGGSTGYADSVKDRFTISRDNAKNSLYLQMNSLRAEDTALYYCVRDKYSYAWSYDGFDIWGQGTMVTVSS
B3: 1.86a (VHH)
VHH: EVQLVESGGGVVRPGGSLRLSCAASGFTFDDYASSWVRQAPGKGLEWVSGITWNGGSTGYADSVKDRFTISRDNAKNSLYLQMNSLRAEDTALYYCVRDKYSYAWSYDGFDIWGQGTMVTVSS
B4: 1.83a (VHH)
VHH: EVQLVESGGGVVRPGGSLRLSCAASGFTFDDYATSWVRQAPGKGLEWVSGITWNGGSTGYADSVKDRFTISRDNAKNSLYLQMNSLRAEDTALYYCVRDKYSYAWSYDGFDIWGQGTMVTVSS
B5: 1.80a (VHH)
VHH: EVQLVESGGGVVRPGGSLRLSCAASGFTFDDYAMSWVRQAPGKGLEWVSGITWNKGSTGYADSVKDRFTISRDNAKNSLYLQMNSLRAEDTALYYCVRDKYSYAWSYDDFDIWGQGTMVTVSS
B6: 1.93a (VHH)
VHH: EVQLVESGGGVVRPGGSLRLSCAASGFTFDDYAVSWVRQAPGKGLEWVSGITWNGGSTGYADSVKDRFTISRDNAKNSLYLQMNSLRAEDTALYYCVRDKYSYAWSYDGFDIWGQGTMVTVSS
B7: 1.84a (VHH)
VHH: EVQLVESGGGVVRPGGSLRLSCAASGFTFDDYANSWVRQAPGKGLEWVSGITWNGGSTGYADSVKDRFTISRDNAKNSLYLQMNSLRAEDTALYYCVRDKYSYAWSYDGFDIWGQGTMVTVSS
B8: 1.88a (VHH)
VHH: EVQLVESGGGVVRPGGSLRLSCAASGFTFDDYAGSWVRQAPGKGLEWVSGITWNGGSTGYADSVKDRFTISRDNAKNSLYLQMNSLRAEDTALYYCVRDKYSYAWSYDGFDIWGQGTMVTVSS
B9: 1.75a (VHH)
VHH: EVQLVESGGGVVRPGGSLRLSCAASGFTFDDYAMSWVRQAPGKGLEWVSGITWNQGSTGYADSVKDRFTISRDNAKNSLYLQMNSLRAEDTALYYCVRDKYSYAWSYDDFDIWGQGTMVTVSS
B10: 1.85a (VHH)
VHH: EVQLVESGGGVVRPGGSLRLSCAASGFTFDDYADSWVRQAPGKGLEWVSGITWNGGSTGYADSVKDRFTISRDNAKNSLYLQMNSLRAEDTALYYCVRDKYSYAWSYDGFDIWGQGTMVTVSS
B11: 1.100a (VHH)
VHH: EVQLVESGGGVVRPGGSLRLSCAASGFTFDDYAMSWVRQAPGKGLEWVSGITWKGGSTGYADSVKDRFTISRDNAKNSLYLQMNSLRAEDTALYYCVRDKYSYAWSYDGFDIWGQGTMVTVSS
B12: 1.90a (VHH)
VHH: EVQLVESGGGVVRPGGSLRLSCAASGFTFDDYAWSWVRQAPGKGLEWVSGITWNGGSTGYADSVKDRFTISRDNAKNSLYLQMNSLRAEDTALYYCVRDKYSYAWSYDGFDIWGQGTMVTVSS
B13: 1.78a (VHH)
VHH: EVQLVESGGGVVRPGGSLRLSCAASGFTFDDYAMSWVRQAPGKGLEWVSGITWNGGSTGYADSVKGRFTISRDNAKNSLYLQMNSLRAEDTALYYCVRDKYSYAWSYDVFDIWGQGTMVTVSS
B14: 1.95a (VHH)
VHH: EVQLVESGGGVVRPGGSLRLSCAASGFTFDDYAMSWVRQAPGKGLEWVSGITWSGGSTGYADSVKDRFTISRDNAKNSLYLQMNSLRAEDTALYYCVRDKYSYAWSYDGFDIWGQGTMVTVSS
B15: 1.87a (VHH)
VHH: EVQLVESGGGVVRPGGSLRLSCAASGFTFDDYALSWVRQAPGKGLEWVSGITWNGGSTGYADSVKDRFTISRDNAKNSLYLQMNSLRAEDTALYYCVRDKYSYAWSYDGFDIWGQGTMVTVSS
B16: 1.73a (VHH)
VHH: EVQLVESGGGVVRPGGSLRLSCAASGFTFDDYARSWVRQAPGKGLEWVSGITWNGGSTGYADSVKGRFTISRDNAKNSLYLQMNSLRAEDTALYYCVRDKYSYAWSYDGFDIWGQGTMVTVSS
B17: 1.91a (VHH)
VHH: EVQLVESGGGVVRPGGSLRLSCAASGFTFDDYARSWVRQAPGKGLEWVSGITWNGGSTGYADSVKDRFTISRDNAKNSLYLQMNSLRAEDTALYYCVRDKYSYAWSYDGFDIWGQGTMVTVSS
B18: 1.99a (VHH)
VHH: EVQLVESGGGVVRPGGSLRLSCAASGFTFDDYAMSWVRQAPGKGLEWVSGITWNGGSTGYADSVKGRFTISRDNAKNSLYLQMNSLRAEDTALYYCVRDKYSYAWSYDGFDIWGQGTMVTVSS
B19: 1.79a (VHH)
VHH: EVQLVESGGGVVRPGGSLRLSCAASGFTFDDYAMSWVRQAPGKGLEWVSGITWNGGSTGYADSVKGRFTISRDNAKNSLYLQMNSLRAEDTALYYCVRDKYSYAWSYDDFDIWGQGTMVTVSS
B20: 1.76a (VHH)
VHH: EVQLVESGGGVVRPGGSLRLSCAASGFTFDDYAMSWVRQAPGKGLEWVSGITWNHGSTGYADSVKDRFTISRDNAKNSLYLQMNSLRAEDTALYYCVRDKYSYAWSYDVFDIWGQGTMVTVSS
B21: 1.97a (VHH)
VHH: EVQLVESGGGVVRPGGSLRLSCAASGFTFDDYAMSWVRQAPGKGLEWVSGITWIGGSTGYADSVKDRFTISRDNAKNSLYLQMNSLRAEDTALYYCVRDKYSYAWSYDGFDIWGQGTMVTVSS
B22: 1.82a (VHH)
VHH: EVQLVESGGGVVRPGGSLRLSCAASGFTFDDYAISWVRQAPGKGLEWVSGITWNGGSTGYADSVKDRFTISRDNAKNSLYLQMNSLRAEDTALYYCVRDKYSYAWSYDGFDIWGQGTMVTVSS
B23: 1.96a (VHH)
VHH: EVQLVESGGGVVRPGGSLRLSCAASGFTFDDYAMSWVRQAPGKGLEWVSGITWPGGSTGYADSVKDRFTISRDNAKNSLYLQMNSLRAEDTALYYCVRDKYSYAWSYDGFDIWGQGTMVTVSS
B24: 1.98a (VHH)
VHH: EVQLVESGGGVVRPGGSLRLSCAASGFTFDDYAMSWVRQAPGKGLEWVSGITWLGGSTGYADSVKDRFTISRDNAKNSLYLQMNSLRAEDTALYYCVRDKYSYAWSYDGFDIWGQGTMVTVSS
B25: 1.74a (VHH)
VHH: EVQLVESGGGVVRPGGSLRLSCAASGFTFDDYAMSWVRQAPGKGLEWVSGITWNSGSTGYADSVKDRFTISRDNAKNSLYLQMNSLRAEDTALYYCVRDKYSYAWSYDDFDIWGQGTMVTVSS
B26: 1.101a (VHH)
VHH: EVQLVESGGGVVRPGGSLRLSCAASGFTFDDYAMSWVRQAPGKGLEWVSGITWRGGSTGYADSVKDRFTISRDNAKNSLYLQMNSLRAEDTALYYCVRDKYSYAWSYDGFDIWGQGTMVTVSS
B27: 1.77a (VHH)
VHH: EVQLVESGGGVVRPGGSLRLSCAASGFTFDDYAMSWVRQAPGKGLEWVSGITWNAGSTGYADSVKDRFTISRDNAKNSLYLQMNSLRAEDTALYYCVRDKYSYAWSYDDFDIWGQGTMVTVSS
B28: 1.102a (VHH)
VHH: EVQLVESGGGVVRPGGSLRLSCAASGFTFDDYAMSWVRQAPGKGLEWVSGITWNGGSTGYADSVKDRFTISRDNAKNSLYLQMNSLRAEDTALYYCVRDKYSYAWSYDVFDIWGQGTMVTVSS
B29: 1.81a (VHH)
VHH: EVQLVESGGGVVRPGGSLRLSCAASGFTFDDYAMSWVRQAPGKGLEWVSGITWNRGSTGYADSVKDRFTISRDNAKNSLYLQMNSLRAEDTALYYCVRDKYSYAWSYDDFDIWGQGTMVTVSS
B30: 1.94a (VHH)
VHH: EVQLVESGGGVVRPGGSLRLSCAASGFTFDDYAMSWVRQAPGKGLEWVSGITWTGGSTGYADSVKDRFTISRDNAKNSLYLQMNSLRAEDTALYYCVRDKYSYAWSYDGFDIWGQGTMVTVSS
B31: 1.92a (VHH)
VHH: EVQLVESGGGVVRPGGSLRLSCAASGFTFDDYAFSWVRQAPGKGLEWVSGITWNGGSTGYADSVKDRFTISRDNAKNSLYLQMNSLRAEDTALYYCVRDKYSYAWSYDGFDIWGQGTMVTVSS

Molecular target: T1, human PD-1 expressed on cells (CHO TREX human PD1 cell line, full-length human PD-1 sequence) (human, UniProt Q15116 21-288)
T1 construct: Also used for human PD-1 on Jurkat reporter cells, on PathHunter cells and on PHA-stimulated human CD4+ T cells; also called CHO human PD1 cells; CHO human PD-1 cells
Assay: worded summary of the screens

T1 sequence (Q15116 21-288): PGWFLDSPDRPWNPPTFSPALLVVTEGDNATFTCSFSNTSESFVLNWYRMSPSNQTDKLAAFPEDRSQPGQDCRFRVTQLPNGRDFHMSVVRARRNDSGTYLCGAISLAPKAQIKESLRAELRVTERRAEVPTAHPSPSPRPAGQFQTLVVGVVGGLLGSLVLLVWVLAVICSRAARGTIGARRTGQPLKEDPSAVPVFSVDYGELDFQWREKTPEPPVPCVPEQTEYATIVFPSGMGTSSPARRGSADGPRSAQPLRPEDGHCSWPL

Binding result, binds:
B1
B2
B3
B4
B5
B6
B7
B8
B9
B10
B11
B12
B13
B14
B15
B16
B17
B18
B19
B20
B21
B22
B23
B24
B25
B26
B27
B28
B29
B30
B31
